To fix the notation:
B1: His-RXRα-LBD [human] / itself (parent)
chain: TSSANEDMPVERILEAELAVEPKTETYVEANMGLNPSSPNDPVTNICQAADKQLFTLVEWAKRIPHFSELPLDDQVILLRAGWNELLIASFSHRSIAVKDGILLATGLHVHRNSAHSAGVGAIFDRVLTELVSKMRDMQMDKTELGCLRAIVLFNPDSKGLSNPAEVEALREKVYASLEAYCKHKYPEQPGRFAKLLLRLPALRSIGLKCLEHLFFFKLIGDTPIDTFLMEMLEAPHQMT

The variants in the assay derive from B1. Kind of assay: non-denaturing polyacrylamide gel electrophoresis, densitometry. The following applies: with itself.

From PMC5520057, “Modulation of nongenomic activation of PI3K signalling by tetramerization of N-terminally-cleaved RXRα” (Nature Communications, 2017) come the findings set out here.

Several values for one entry are separate records, joined by “and”; a condition that tells them apart may be missing. Identical values can stand only once.

On to TSSANEDMPVERILEAELAVEPKTETYVEANMGLNPSSPNDPVTNICQAADKQLFTLVEWAKRIPHFSELPLDDQVILLRAGWNELLIASFSHRSIAVKDGILLATGLHVHRNSAHSAGVGAIFDRVLTELVSKMRDMQMDKTELGCLRAIVLFNPDSKGLSNPAEVEALREKVYASLEAYCKHKYPEQPGRFAKLLLRLPALRSIGLKCDEHLFFFKLIGDTPIDTFLMEMLEAPHQMT [chain 1 L211D], for which the screen value is, setting by setting: (DMSO (no K-80003, no 9-cis-RA)) 54% and 46%; (K-80003) 43% and 57%; (K-80003 + 9-cis-RA) 59% and 41%.
TSSANEDMPVERILEAELAVEPKTETYVEANMGLNPSSPNDPVTNICQAADKELFTLVEWAKRIPHFSELPLDDQVILLRAGWNELLIASFSHRSIAVKDGILLATGLHVHRNSAHSAGVGAIFDRVLTELVSKMRDMQMDKTELGCLRAIVLFNPDSKGLSNPAEVEALREKVYASLEAYCKHKYPEQPGRFAKLLLRLPALRSIGLKCLEHLFFFKLIGDTPIDTFLMEMLEAPHQMT [chain 1 Q53E]: the screen value runs as follows: (DMSO (no K-80003, no 9-cis-RA)) 53% and 47%; (K-80003) 58% and 42%.
Turning to TSSANEDMPVERILEAELAVEPKTETYVEANMGLNPSSPNDPVTNICQAADKQLFTLVEWAKRIPHFSELPLDDQVILLRAGWNELLIASFSHRSIAVKDGILLATGLHVHRNSAHSAGVGAIFDRVLTELVSKMRDMQMDKTELGCLRAIVLFNPDSKGLSNPAEVEALREKVYASLEAYCKHKYPEQPGRFAKLLLRLPALRSIGLKCLEHLFFAKLIGDTPIDTFLMEMLEAPHQMT [chain 1 F217A], the screen value is 47% and 53% (DMSO (no K-80003, no 9-cis-RA)); 55% and 45% (K-80003).
